# Measurements reported in the DeepSol protein solubility set.
# Assay: soluble on expression in E. coli; label from the status in PepcDB or PDB records
row,Sequence,soluble on expression in E. coli
1,LLSKKEIITVNVAPGHHFNDVITVKGMADEEIDKTTCGDLKFHLTEKQENLEQKQIFLKNFDDGAGEDLYTSITISLSEALTGFEKFLTKTFDDRLLTLSVKPGRVVRPGDTIKIANEGWPILDNPHGRCGDLYVFVHIEFPPDNWFNEKSELLAIKTNLPSSSSCASHATVNTEDDSNLTNNETISNFRIIHTDDLPEGIRPFKPEAQDSAHQKARSSYCCIQ,not soluble
2,MDDATKSSLKAIPLCKTKASPRDGDLWIERLKEEYEAIIAAVQNNKDCDRDWFQLESNERGTKWFGKCWYFHNMVKYEFDVEFDIPITYPVTAPEIALPELDGKTAKMYRGGKICLSEHFKPLWARNTPKFGIAHAFALGLGPWMAVEIPDLIEKGLIQPKA,not soluble
3,MKHHHHHHPMSGLVPRGSAMGEPLASASKFSSIVSNDIDMNFRSFKFWVHNDNLMEVKTRILRHLPVLVYANVPSENDDLVNRFESDISNNDEIVGSSSSTSSVEHGLGARSFDPLINTLYFDNEHFELYNDKLLKLNSAPTLRLRWTGQLSDKPDIFLEKKTLIEDEATGKSEFDLTKLQLKQKFINGFIFEGDKKFKEQTLKKLKESGTAGRDLERLEEDFSEIQNFIIKNELQPVFRTVYTRTAFQIPGDDKIRVTIDSNIVFIKEDSFDRERPIRDPNTWHRTDIDANVANPLKFLRGGEYAKFPYSVMEIKVKSSLDSSMSASSMISNVKLPKKHGQWLNDLTNSHLVKEIPKFSIFVQGVASLYGDDEKLDILPFWLPDLETDIRQ,soluble
4,MAHHHHHHMTSTVTAVNQTQSLAAIRNFVRASVSCITYARGLCSDNAYEQRPFLGLPLRQLIPSTTESITISEWIEKGAFDALNRNYLKEMSLCVYDAACHELLESYCFGFNYTGDGERAQMTLNASQTIADGSKTTAVSQSSGGAVGIPAYRKRRCTKQEVQHLLTSILERLMDVVESLPPLLSERVLTMRLTYYDAVTPASYEPPCFAPASEHMARLYQAEVKHHVNIGSMDTSHHLFSVAIRHPLLQQIHRQMTGRTTSAVATKTGGSPLSAGKIAAVSTPSDPLRSGWESSFSSDPAVASAVAAAGATVTHGVVASHASCGLLLCADGEGAAFDAENAGEEKAAGSSLGEVGGGGACTARTGETLRPCEVAKLDGVYRLMEKSTSGDERRLLRPAELTYLLFAAFVFTKAPSARGGRGELKADEVEAYRALRCPFDVSAKTVLLVLQRLSREDFLQPCNARGAPAPKMPKAEEGSRPTPAIRAWLVPDPPASLLQQLMQVDAVTELLTHESHLVLQELSVYLAREEWRRAPRTMTAKATSGRISTTGGSGKRRSSR,soluble
5,MKVKSISRFFSMKKVTLSFVTLFIGVGTIGSYNQYADASMKTQQTHVTKSSPTQKTTSNFKRSVKDTSVKSRATSIKRATSTKQAISPKTSSTKKTTIAKKSTTVNKTRTTTKTQPTIRKSSTTSTRSKTMPTSVKRTTSHKATTVSPTSKAKISTKTQQSTKSHTTSVKKNTTQLSKTKSPSTSTKSKTVQSSTTKAQPTLSTQVSTTTKAKQFSTPTTSKTDSSKSLVSLASTERKIDKYQSMTQLEKETTEGVDWRKDTKNTGNQVLIVAPHGGSIEQGTTELTKALADKGNYDYYSFEGIRPKNNSELHVTSTHYDDPTLNQMIKNRTATISIHGASGSEEIIYLGGPRSDLRNAIEKQLVARGFTVKVPPEYLGGQNNKNFINREDNNTGVQLELTTALRKAFFKNGDTSTKNRTNKENWTPTMEEFINALYEGINQTYSLEHHHHHH,not soluble
6,MGSDKIHHHHHHGKGQQPSEENEDPKAKEILQGIWLDDETETPLMRIIGDTIYYSDAQSAPVYFKILKDTLYTYGKDVTHYQIDKQSEYSFWFHSLADNIIKLHKSEDPNDTLAFSFKSVEIIPTYTEVTKKDSVVMFDGVRYRAYVYINPSQMKVVKTTYSEDGISMDNIYYDNVMHICVYEGKKSLYAKDITKQMFVDVIPTDFLQQAILSDMNFIGIDRKGYHYQALVCIPESPVCNLVNLTISFDGKLNITAAKYK,not soluble
7,MKTKLDFLKMKESEEPIVMLTAYDYPAAKLAEQAGVDMILVGDSLGMVVLGLDSTVGVTVADMIHHTKAVKRGAPNTFIVTDMPFMSYHLSKEDTLKNAAAIVQESGADALKLEGGEGVFESIRALTLGGIPVVSHLGLTPQSVGVLGGYKVQGKDEQSAKKLIEDSIKCEEAGAMMLVLECVPAELTAKIAETLSIPVIGIGAGVKADGQVLVYHDIIGHGVERTPKFVKQYTRIDETIETAISGYVQDVRHRAFPEQKHSFQMNQTVLDGLYGGKLEHHHHHH,soluble
8,MSLGGTGKVGVILPLLTSPFWQSYNDYVPKMAKSEGVDTLKTVNSNSDPSQQITDINNQLNQGVKGLVVAPLDSAAIEAGLDQADRKGVPVVAVDVAPEKGKVAMVVRADNVAYGEKACQYLGEQVTSGKVVQIMGDLASVNGRDRSEAFRTCVRKNYPKLKVLEIPAKWESDTAASKLDTLLNANPDIKGIYMQAGGVYLAPTLQTLKSKGLLKKTGEKGHITIVSNDGIPQEFDAIRKGQIDATVSQPADAYAKYGMYYIKAAMQGKTFKPGPTDHDSTIVKLPSGILEDQLPAPLVTKDNVDDAKLWGNTEGHHHHHH,soluble
9,MSLSQKNNNELPKQAAENTLNLNPVIGIRGKDLLTSARMVLLQAVRQPLHSARHVAHFSLELKNVLLGQSELRPGDDDRRFSDPAWSQNPLYKRYMQTYLAWRKELHSWISHSDLSPQDISRGQFVINLLTEAMSPTNSLSNPAAVKRFFETGGKSLLDGLGHLAKDLVNNGGMPSQVDMDAFEVGKNLATTEGAVVFRNDVLELIQYRPITESVHERPLLVVPPQINKFYVFDLSPDKSLARFCLRNGVQTFIVSWRNPTKSQREWGLTTYIEALKEAIEVVLSITGSKDLNLLGACSGGITTATLVGHYVASGEKKVNAFTQLVSVLDFELNTQVALFADEKTLEAAKRRSYQSGVLEGKDMAKVFAWMRPNDLIWNYWVNNYLLGNQPPAFDILYWNNDTTRLPAALHGEFVELFKSNPLNRPGALEVSGTPIDLKQVTCDFYCVAGLNDHITPWESCYKSARLLGGKCEFILSNSGHIQSILNPPGNPKARFMTNPELPAEPKAWLEQAGKHADSWWLHWQQWLAERSGKTRKAPASLGNKTYPAGEAAPGTYVHEREGHHHHHH,soluble
10,MGSDKIHHHHHHMKRRLGLKLYYRRRGHVKPSLLFVIQSHKGEFVKDRLEEYLNNLKIEKKPDSRESWDSYFMRIARMVSERSTCVHRKVGAVIVKDHRILATGYNQPPSKFPHCNEIGCIRDDLEINSGEHQEICYALHAEQNALMQAAKFGIAVNGATIYVTHKPCSICARLIVNAGIKRVVYEKDYPDPLTDFFFKFTGVESVRFVGDEM,not soluble
11,MSLKYGRDTIVEVDLNAVKHNVKEFKKRVNDENIAMMAAVKANGYGHGAVEVAKAAIEAGINQLAIAFVDEAIELREAGINVPILILGYTSVAAAEEAIQYDVMMTVYRSEDLQGINEIANRLQKKAQIQVKIDTGMSRIGLQEEEVKPFLEELKRMEYVEVVGMFTHYSTADEIDKSYTNMQTSLFEKAVNTAKELGIHIPYIHSSNSAGSMEPSNTFQNMVRVGIGIYGMYPSKEVNHSVVSLQPALSLKSKVAHIKHAKKNRGVSYGNTYVTTGEEWIATVPIGYADGYNRQLSNKGHALINGVRVPVIGRVCMDQLMLDVSKAMPVQVGDEVVFYGKQGEENIAVEEIADMLGTINYEVTCMLDRRIPRVYKENNETTAVVNILRKN,not soluble
12,LEMKGKRMSVTAVMRELEKEENLYRRSGGGITLSGGEPLAQPEFARELLKACKAKGWHTAIETSGFTTKAVIDEVFPYVDLALTDIKAIDPEIHERNTGVNNRVILENLLRISFLTKVVVRIPVIPGVNDNSQEIHNIAEFARLMQNVDTIHLLPYHSFGENKYNLLGRQYPMGDTKSIEESQMAELKAMVESLGFNCHIGG,not soluble
13,MGSDKIHHHHHHLRVKKKWFIPIGILALSSWFLYRENNQIDTTAVTVQSDKLPAAFNDYKILQIADLHGKSFGSRQKVLLKKVNKLQPDVILMTGDLIDSRRNGEEEALLLMKQLTPDYPVYFVTGNHEVRLNLTILPKLEQLGVTVLRNTSVSLEQNGQFIELLGIDDPTTTRWSEGLQEPDGIRQSLDQAQSTAETRSFQLLMAHRPEYLPLYAERKVDLVLSGHAHGGQIRLPFTDGMYAPGQGFFPDLTAGQHTMENTRLIISRGLGNSLFPFRIFNHPELIVVTLRT,not soluble
14,AIAPAKSPSTRKKRARTKDEDEENVDTGNQTTAPTFRDKNLQLVHDFLASQNRPFSLQNILDSLANKGDMKKAALDKALTELVTSEYVTCKEYGKAKLYLIRQKNIALPSAEETAALDSRLETLANELEELSAECQVLEAKISELSAQPRTEEAKERVALLETETATIDERIEKLQVHCAGYDSSRRQYIQQQHERALKALRLRRSRARQIILQMAEGMERKPRELADEIGIESDSDDWLTASRSVVSNARSKAAV,soluble
15,MEVAVEKAVAAAAAASAAASGGPSAAPSGENEAESRQGPDSERGGEAARLNLLDTCAVCHQNIQSRAPKLLPCLHSFCQRCLPAPQRYLMLPAPMLGSAETPPPVPAPGSPVSGSSPFATQVGVIRCPVCSQECAERHIIDNFFVKDTTEVPSSTVEKSNQVCTSCEDNAEANGFCVECVEWLCKTCIRAHQRVKFTKDHTVRQKEEVSPEAVGVTSQRPVFCPFHKKEQLKLYCETCDKLTCRDCQLLEHKEHRYQFIEEAFQNQKVIIDTLITKLMEKTKYIKFTGNQIQNRIIEVNQNQKQVEQDIKVAIFTLMVEINKKGKALLHQLESLAKDHRMKLMQQQQEVAGLSKQLEHVMHFSKWAVSSGSSTALLYSKRLITYRLRHLLRARCDASPVTNNTIQFHCDPSFWAQNIINLGSLVIEDKESQPQMPKQNPVVEQNSQPPSGLSSNQLSKFPTQISLAQLRLQHMQQQVMAQRQQVQRRPAPVGLPNPRMQGPIQQPSISHQQPPPRLINFQNHSPKPNGPVLPPHPQQLRYPPNQNIPRQAIKPNPLQMAFLAQQAIKQWQISSGQGTPSTTNSTSSTPSSPTITSAAGYDGKAFGSPMIDLSSPVGGSYNLPSLPDIDCSSTIMLDNIVRKDTNIDHGQPRPPSNRTVQSPNSSVPSPGLAGPVTMTSVHPPIRSPSASSVGSRGSSGSSSKPAGADSTHKVPVVMLEPIRIKQENSGPPENYDFPVVIVKQESDEESRPQNANYPRSILTSLLLNSSQSSTSEETVLRSDAPDSTGDQPGLHQDNSSNGKSEWLDPSQKSPLHVGETRKEDDPNEDWCAVCQNGGELLCCEKCPKVFHLSCHVPTLTNFPSGEWICTFCRDLSKPEVEYDCDAPSHNSEKKKTEGLVKLTPIDKRKCERLLLFLYCHEMSLAFQDPVPLTVPDYYKIIKNPMDLSTIKKRLQEDYSMYSKPEDFVADFRLIFQNCAEFNEPDSEVANAGIKLENYFEELLKNLYPEKRFPKPEFRNESEDNKFSDDSDDDFVQPRKKRLKSIEERQLLK,soluble
16,ILLVHGSGYGGWCWDATIRALAAHGARARALDLPGRIFTPGLSLADHAAAILQEIRAPVTLVGHSAGGFSIAAAAEAAAPGLIERLIFLCAYAPRDGASVASMRRAQARQPLRPAIRLAPDRLSYSFDPDLAGEALFHDCPPEVRAAALARMGAEPVGPQEERIRLSARYHALPKHYIRCLEDRAIPPETQEAMTADWPAGSVSTLPAGHSPFLSCPEALAKRLISVAAN,not soluble
17,MGSDKIHHHHHHMYSLAVNNGTLSDEQISGLVHQALADRQLDGQRILILIPDGTRTAPIPQIFRLLHQELGKRVPALDFLIALGTHNPMSEEQINHLVGVTPKERETTFKKVRIFNHLWNEPDTFISCGVISADEIAEISRGMLHQSVEVRVNKLVTQYDLIMICGPVFPHEVVGFSGGNKYFFPGIGGQEVIDISHWLGALITSYEIIGTSGITPVRRLINRAANLISTPKLCLAMVVAPKTNQLAGLYIDKPESAWEAAAKLSDKLHITYVDRSFKQVLSVMPEMYDDIWTAAKGMYKLEPVVADGGEVIIYAPHITEFSYTHGEILSQIGYHVRDYFLKQWDKFQAYPGGVLAHSTHLKGMGTFDFTEGEKARIRVTLATGISAERCAAHNLNYRDPATIRPTEWANREDEGILLVPKSGEILYRLIQA,not soluble
